Assay results from patent publication US8367390B2, “Galactanase variants” (Novozymes A/S, priority 2002, dated 2013).
Read-outs that look alike come from different tables or passages of the source.

Experiments:
[1] = Activity on galactobiose (Gal2); format: biochemical; conditions: in 24 hours; buffer, pH and temperature per enzyme
Protocol: (§1) The activity on the galacto-oligosaccharide substrates prepared as described above and on the commercially available galactobiose (Gal2, Megazyme) was studied for the four purified galactanases HIGAL, MTGAL, AAGAL and BLGAL. The buffers and temperatures used were: 25 mM sodium acetate, 0.5 mM CaCl2, 0.005% Triton X-100, pH 6.5 at 37° C. for HIGAL and MTGAL, 50 mM sodium acetate, 1 mM CaCl2, pH 4 at 30° C. for AAGAL and 50 mM Mes, 1 mM CaCl2, pH 6.5 at 30° C. for BLGAL. Enzyme concentrations used were 0.8 μg/ml for HIGAL, 0.2 microgram/ml for MTGAL, and 10 micrograms/ml for AAGAL and BLGAL. With HIGAL and MTGAL substrate concentrations were all 0.25 mg/ml, whereas 0.34 mg/ml Gal2, 0.050 mg/ml Gal3 and 0.067 mg/ml Gal4 were used for AAGAL and BLGAL. Enzyme activity in samples withdrawn after various incubation times was inactivated by heating to 95° C. for 10 min. Compositions of reaction products were analysed using HPAE-PAD (Dionex) applying a PA-100 column and a linear gradient of sodium acetate (0-0.18 M) in 0.15 M NaOH. Response factors of the individual carbohydrates were estimated from reference runs with MeGal3, MeGal4, Gal, Gal2, Gal3 and Gal4. Selected results are shown in Tables 2-8 below (the figures indicating weight percentage of glactooligosaccharides).

[2] = format: biochemical; conditions: for Gal2 in reaction products / Gal3 in reaction products / Gal4 in reaction products / Gal in reaction products: Gal4 0.25 mg/ml, pH 6.5, 37° C.
Protocol: as §1

[3] = Degradation of MeGal3, products by HPAE-PAD; format: biochemical; conditions: for Gal2 in reaction products / Gal3 in reaction products / Gal in reaction products / MeGal2 in reaction products / MeGal3 in reaction products / MeGal in reaction products: MeGal3 0.25 mg/ml, pH 6.5, 37° C.
Protocol: as §1

[4] = Degradation of MeGal4, products by HPAE-PAD; format: biochemical; conditions: for Gal2 in reaction products / Gal3 in reaction products / Gal4 in reaction products / Gal in reaction products / MeGal2 in reaction products / MeGal3 in reaction products / MeGal4 in reaction products / MeGal in reaction products: MeGal4 0.25 mg/ml, pH 6.5, 37° C.
Protocol: as §1

B1: HIGAL: GH Family 53 galactanase from Humicola insolens, SEQ ID NO: 2 (wild type parent) (protein, listed as Humicola insolens)
chain: ALQYKGVDWSSVMVEERAGVRYKNVNGQEKPLEYILAENGVNMVRQRVWVNPWDGNYNLDYNIQLARRAKAAGLGLYINFHYSDTWADPAHQTTPAGWPSDINNLAWKLYNYTLDSMNRFADAGIQVDIVSIGNEITQGLLWPLGKTNNWYNIARLLHSAAWGVKDSRLNPKPKIMVHLDNGWNWDTQNWWYTNVLSQGPFEMSDFDMMGVSFYPFYSASATLDSLRRSLNNMVSRWGKEVAVVETNWPTSCPYPRYQFPADVRNVPFSAAGQTQYIQSVANVVSSVSKGVGLFYWEPAWIHNANLGSSCADNTMFTPSGQALSSLSVFHRI
modifications: mat_peptide (1)..()
Activity on Gal2 [1]: Neither of the enzymes HIGAL, MTGAL, AAGAL or BLGAL had any detectable activity | Products of Gal4 (galactotetraose) degradation [2]: mainly to Gal and Gal2, whereas Gal3 did not accumulate | Gal2 in reaction products ([2]; incubation time 0.0 hours): 0.0 weight percentage | Gal3 in reaction products ([2]; incubation time 0.0 hours): 42.0 weight percentage | Gal4 in reaction products ([2]; incubation time 0.0 hours): 58.0 weight percentage | Gal in reaction products ([2]; incubation time 0.0 hours): 0.0 weight percentage | Gal2 in reaction products ([2]; incubation time 0.5 hours): 8.1 weight percentage | Gal3 in reaction products ([2]; incubation time 0.5 hours): 43.2 weight percentage | Gal4 in reaction products ([2]; incubation time 0.5 hours): 42.9 weight percentage | Gal in reaction products ([2]; incubation time 0.5 hours): 5.8 weight percentage | Gal2 in reaction products ([2]; incubation time 2.2 hours): 21.9 weight percentage | Gal3 in reaction products ([2]; incubation time 2.2 hours): 39.8 weight percentage | Gal4 in reaction products ([2]; incubation time 2.2 hours): 21.6 weight percentage | Gal in reaction products ([2]; incubation time 2.2 hours): 16.7 weight percentage | Gal2 in reaction products ([2]; incubation time 5.0 hours): 34.8 weight percentage | Gal3 in reaction products ([2]; incubation time 5.0 hours): 23.9 weight percentage | Gal4 in reaction products ([2]; incubation time 5.0 hours): 5.7 weight percentage | Gal in reaction products ([2]; incubation time 5.0 hours): 35.6 weight percentage | Gal2 in reaction products ([2]; incubation time 72.0 hours): 33.6 weight percentage | Gal3 in reaction products ([2]; incubation time 72.0 hours): 0.9 weight percentage | Gal4 in reaction products ([2]; incubation time 72.0 hours): 0.2 weight percentage | Gal in reaction products ([2]; incubation time 72.0 hours): 65.2 weight percentage | Gal2 in reaction products ([3]; incubation time 0.0 hours): 0.0 weight percentage | Gal3 in reaction products ([3]; incubation time 0.0 hours): 0.0 weight percentage | Gal in reaction products ([3]; incubation time 0.0 hours): 0.0 weight percentage | MeGal2 in reaction products ([3]; incubation time 0.0 hours): 0.0 weight percentage | MeGal3 in reaction products ([3]; incubation time 0.0 hours): 100.0 weight percentage | MeGal in reaction products ([3]; incubation time 0.0 hours): 0.0 weight percentage | Gal2 in reaction products ([3]; incubation time 0.5 hours): 3.9 weight percentage | Gal3 in reaction products ([3]; incubation time 0.5 hours): 1.2 weight percentage | Gal in reaction products ([3]; incubation time 0.5 hours): 0.0 weight percentage | MeGal2 in reaction products ([3]; incubation time 0.5 hours): 3.3 weight percentage | MeGal3 in reaction products ([3]; incubation time 0.5 hours): 80.3 weight percentage | MeGal in reaction products ([3]; incubation time 0.5 hours): 11.4 weight percentage | Gal2 in reaction products ([3]; incubation time 2.2 hours): 12.5 weight percentage | Gal3 in reaction products ([3]; incubation time 2.2 hours): 3.3 weight percentage | Gal in reaction products ([3]; incubation time 2.2 hours): 2.3 weight percentage | MeGal2 in reaction products ([3]; incubation time 2.2 hours): 3.7 weight percentage | MeGal3 in reaction products ([3]; incubation time 2.2 hours): 59.7 weight percentage | MeGal in reaction products ([3]; incubation time 2.2 hours): 18.4 weight percentage | Gal2 in reaction products ([3]; incubation time 5.0 hours): 20.2 weight percentage | Gal3 in reaction products ([3]; incubation time 5.0 hours): 10.6 weight percentage | Gal in reaction products ([3]; incubation time 5.0 hours): 3.0 weight percentage | MeGal2 in reaction products ([3]; incubation time 5.0 hours): 5.2 weight percentage | MeGal3 in reaction products ([3]; incubation time 5.0 hours): 24.2 weight percentage | MeGal in reaction products ([3]; incubation time 5.0 hours): 36.8 weight percentage | Gal2 in reaction products ([3]; incubation time 72.0 hours): 36.2 weight percentage | Gal3 in reaction products ([3]; incubation time 72.0 hours): 8.0 weight percentage | Gal in reaction products ([3]; incubation time 72.0 hours): 17.1 weight percentage | MeGal2 in reaction products ([3]; incubation time 72.0 hours): 4.2 weight percentage | MeGal3 in reaction products ([3]; incubation time 72.0 hours): 0.0 weight percentage | MeGal in reaction products ([3]; incubation time 72.0 hours): 34.6 weight percentage | Release of MeGal versus MeGal2 from MeGal3 ([3]; in words): much higher release of MeGal than MeGal2 | Gal2 in reaction products ([4]; incubation time 0.0 hours): 0.0 weight percentage | Gal3 in reaction products ([4]; incubation time 0.0 hours): 0.0 weight percentage | Gal4 in reaction products ([4]; incubation time 0.0 hours): 0.0 weight percentage | Gal in reaction products ([4]; incubation time 0.0 hours): 0.0 weight percentage | MeGal2 in reaction products ([4]; incubation time 0.0 hours): 4.7 weight percentage | MeGal3 in reaction products ([4]; incubation time 0.0 hours): 14.8 weight percentage | MeGal4 in reaction products ([4]; incubation time 0.0 hours): 79.0 weight percentage | MeGal in reaction products ([4]; incubation time 0.0 hours): 1.6 weight percentage | Gal2 in reaction products ([4]; incubation time 0.5 hours): 6.3 weight percentage | Gal3 in reaction products ([4]; incubation time 0.5 hours): 20.6 weight percentage | Gal4 in reaction products ([4]; incubation time 0.5 hours): 3.3 weight percentage | Gal in reaction products ([4]; incubation time 0.5 hours): 2.3 weight percentage | MeGal2 in reaction products ([4]; incubation time 0.5 hours): 12.6 weight percentage | MeGal3 in reaction products ([4]; incubation time 0.5 hours): 17.2 weight percentage | MeGal4 in reaction products ([4]; incubation time 0.5 hours): 25.5 weight percentage | MeGal in reaction products ([4]; incubation time 0.5 hours): 12.1 weight percentage | Gal2 in reaction products ([4]; incubation time 2.0 hours): 5.0 weight percentage | Gal3 in reaction products ([4]; incubation time 2.0 hours): 16.0 weight percentage | Gal4 in reaction products ([4]; incubation time 2.0 hours): 3.2 weight percentage | Gal in reaction products ([4]; incubation time 2.0 hours): 1.6 weight percentage | MeGal2 in reaction products ([4]; incubation time 2.0 hours): 13.2 weight percentage | MeGal3 in reaction products ([4]; incubation time 2.0 hours): 18.4 weight percentage | MeGal4 in reaction products ([4]; incubation time 2.0 hours): 32.1 weight percentage | MeGal in reaction products ([4]; incubation time 2.0 hours): 10.5 weight percentage | Gal2 in reaction products ([4]; incubation time 5.0 hours): 13.8 weight percentage | Gal3 in reaction products ([4]; incubation time 5.0 hours): 19.7 weight percentage | Gal4 in reaction products ([4]; incubation time 5.0 hours): 3.2 weight percentage | Gal in reaction products ([4]; incubation time 5.0 hours): 7.4 weight percentage | MeGal2 in reaction products ([4]; incubation time 5.0 hours): 16.1 weight percentage | MeGal3 in reaction products ([4]; incubation time 5.0 hours): 15.5 weight percentage | MeGal4 in reaction products ([4]; incubation time 5.0 hours): 7.6 weight percentage | MeGal in reaction products ([4]; incubation time 5.0 hours): 16.6 weight percentage | Gal2 in reaction products ([4]; incubation time 24.0 hours): 25.3 weight percentage | Gal3 in reaction products ([4]; incubation time 24.0 hours): 9.1 weight percentage | Gal4 in reaction products ([4]; incubation time 24.0 hours): 1.7 weight percentage | Gal in reaction products ([4]; incubation time 24.0 hours): 26.4 weight percentage | MeGal2 in reaction products ([4]; incubation time 24.0 hours): 13.4 weight percentage | MeGal3 in reaction products ([4]; incubation time 24.0 hours): 5.0 weight percentage | MeGal4 in reaction products ([4]; incubation time 24.0 hours): 0.0 weight percentage | MeGal in reaction products ([4]; incubation time 24.0 hours): 19.1 weight percentage | Products from MeGal4 ([4]; in words, buffer, pH and temperature per enzyme): initial release mainly of MeGal, MeGal2 and Gal3 and some Gal2 but little Gal
